Source: patent US20180155451A1 (published 2018)

Molecular target: FcγRIIa H (human FcγRIIa, allotype with His at position 131), extracellular domain with C-terminal His tag (human, UniProt P12318 34-217)
Assay: SPR (Biacore), antibody captured on antigen peptide chip, FcγR as analyte; relative to HeCon Ab GpH7-A5/GpH7-B3/GpL16-k0 = 100

Sequence of FcγRIIa H (human FcγRIIa, allotype with His at position 131), extracellular domain with C-terminal His tag (P12318 34-217): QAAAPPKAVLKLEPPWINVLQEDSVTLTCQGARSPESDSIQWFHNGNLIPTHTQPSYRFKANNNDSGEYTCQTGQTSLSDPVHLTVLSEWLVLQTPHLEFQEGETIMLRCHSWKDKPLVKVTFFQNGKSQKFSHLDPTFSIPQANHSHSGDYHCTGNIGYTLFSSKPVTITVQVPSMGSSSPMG

Binder | He/Con_2aH
GpH7-A5/GpH7-B3 variant G236_07I/GpL16-k0 (antibody, human IgG1, kappa, heterodimerized, mutation in one H chain only; also called He Ab) heavy 1: not shown heavy 2: not shown light: DIVMTQSPLSLPVTPGEPASISCQASESLVHSNRNTYLHWYLQKPGQSPQLLIYKVSNRFSGVPDRFSGSGSGTDFTLKISRVEAEDVGVYYCSQNTHVPPTFGQGTKVEIERTVAAPSVFIFPPSDEQLKSGTASVVCLLNNFYPREAKVQWKVDNALQSGNSQESVTEQDSKDSTYSLSSTLTLSKADYEKHKVYACEVTHQGLSSPVTKSFNRGEC | 115 control = 100
GpH7-A5/GpH7-B3 variant H268_18N/GpL16-k0 (antibody, human IgG1, kappa, heterodimerized, mutation in one H chain only; also called He Ab) heavy 1: not shown heavy 2: not shown light: DIVMTQSPLSLPVTPGEPASISCQASESLVHSNRNTYLHWYLQKPGQSPQLLIYKVSNRFSGVPDRFSGSGSGTDFTLKISRVEAEDVGVYYCSQNTHVPPTFGQGTKVEIERTVAAPSVFIFPPSDEQLKSGTASVVCLLNNFYPREAKVQWKVDNALQSGNSQESVTEQDSKDSTYSLSSTLTLSKADYEKHKVYACEVTHQGLSSPVTKSFNRGEC | 112 control = 100
GpH7-A5/GpH7-B3 variant I336_08L/GpL16-k0 (antibody, human IgG1, kappa, heterodimerized, mutation in one H chain only; also called He Ab) heavy 1: not shown heavy 2: not shown light: DIVMTQSPLSLPVTPGEPASISCQASESLVHSNRNTYLHWYLQKPGQSPQLLIYKVSNRFSGVPDRFSGSGSGTDFTLKISRVEAEDVGVYYCSQNTHVPPTFGQGTKVEIERTVAAPSVFIFPPSDEQLKSGTASVVCLLNNFYPREAKVQWKVDNALQSGNSQESVTEQDSKDSTYSLSSTLTLSKADYEKHKVYACEVTHQGLSSPVTKSFNRGEC | 106 control = 100
GpH7-A5/GpH7-B3 variant I336_06M/GpL16-k0 (antibody, human IgG1, kappa, heterodimerized, mutation in one H chain only; also called He Ab) heavy 1: not shown heavy 2: not shown light: DIVMTQSPLSLPVTPGEPASISCQASESLVHSNRNTYLHWYLQKPGQSPQLLIYKVSNRFSGVPDRFSGSGSGTDFTLKISRVEAEDVGVYYCSQNTHVPPTFGQGTKVEIERTVAAPSVFIFPPSDEQLKSGTASVVCLLNNFYPREAKVQWKVDNALQSGNSQESVTEQDSKDSTYSLSSTLTLSKADYEKHKVYACEVTHQGLSSPVTKSFNRGEC | 106 control = 100
GpH7-A5/GpH7-B3 variant K326_10E/GpL16-k0 (antibody, human IgG1, kappa, heterodimerized, mutation in one H chain only; also called He Ab) heavy 1: not shown heavy 2: not shown light: DIVMTQSPLSLPVTPGEPASISCQASESLVHSNRNTYLHWYLQKPGQSPQLLIYKVSNRFSGVPDRFSGSGSGTDFTLKISRVEAEDVGVYYCSQNTHVPPTFGQGTKVEIERTVAAPSVFIFPPSDEQLKSGTASVVCLLNNFYPREAKVQWKVDNALQSGNSQESVTEQDSKDSTYSLSSTLTLSKADYEKHKVYACEVTHQGLSSPVTKSFNRGEC | 102 control = 100
GpH7-A5/GpH7-B3 variant H268_02A/GpL16-k0 (antibody, human IgG1, kappa, heterodimerized, mutation in one H chain only; also called He Ab) heavy 1: not shown heavy 2: not shown light: DIVMTQSPLSLPVTPGEPASISCQASESLVHSNRNTYLHWYLQKPGQSPQLLIYKVSNRFSGVPDRFSGSGSGTDFTLKISRVEAEDVGVYYCSQNTHVPPTFGQGTKVEIERTVAAPSVFIFPPSDEQLKSGTASVVCLLNNFYPREAKVQWKVDNALQSGNSQESVTEQDSKDSTYSLSSTLTLSKADYEKHKVYACEVTHQGLSSPVTKSFNRGEC | 114 control = 100
GpH7-A5/GpH7-B3 variant K326_06M/GpL16-k0 (antibody, human IgG1, kappa, heterodimerized, mutation in one H chain only; also called He Ab) heavy 1: not shown heavy 2: not shown light: DIVMTQSPLSLPVTPGEPASISCQASESLVHSNRNTYLHWYLQKPGQSPQLLIYKVSNRFSGVPDRFSGSGSGTDFTLKISRVEAEDVGVYYCSQNTHVPPTFGQGTKVEIERTVAAPSVFIFPPSDEQLKSGTASVVCLLNNFYPREAKVQWKVDNALQSGNSQESVTEQDSKDSTYSLSSTLTLSKADYEKHKVYACEVTHQGLSSPVTKSFNRGEC | 103 control = 100
GpH7-A5/GpH7-B3 variant H268_19Q/GpL16-k0 (antibody, human IgG1, kappa, heterodimerized, mutation in one H chain only; also called He Ab) heavy 1: not shown heavy 2: not shown light: DIVMTQSPLSLPVTPGEPASISCQASESLVHSNRNTYLHWYLQKPGQSPQLLIYKVSNRFSGVPDRFSGSGSGTDFTLKISRVEAEDVGVYYCSQNTHVPPTFGQGTKVEIERTVAAPSVFIFPPSDEQLKSGTASVVCLLNNFYPREAKVQWKVDNALQSGNSQESVTEQDSKDSTYSLSSTLTLSKADYEKHKVYACEVTHQGLSSPVTKSFNRGEC | 102 control = 100
GpH7-A5/GpH7-B3 variant K326_19Q/GpL16-k0 (antibody, human IgG1, kappa, heterodimerized, mutation in one H chain only; also called He Ab) heavy 1: not shown heavy 2: not shown light: DIVMTQSPLSLPVTPGEPASISCQASESLVHSNRNTYLHWYLQKPGQSPQLLIYKVSNRFSGVPDRFSGSGSGTDFTLKISRVEAEDVGVYYCSQNTHVPPTFGQGTKVEIERTVAAPSVFIFPPSDEQLKSGTASVVCLLNNFYPREAKVQWKVDNALQSGNSQESVTEQDSKDSTYSLSSTLTLSKADYEKHKVYACEVTHQGLSSPVTKSFNRGEC | 101 control = 100
